Measurements taken from the supplement of paper PMC10567573.
± gives the standard deviation.

Test: protein stability index of a GFP-peptide fusion (GPS, HEK-293T) (PSI 1-6); higher = more stable
Conditions: c terminus: a fixed tail appended
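Note: 24-mer peptide tiles fused after GFP, lentivirally expressed, FACS-sorted into six equal bins by GFP/DsRed ratio, decoded by Illumina sequencing, PSI is the read-weighted mean bin number.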

| Sequence | protein stability index (treatment: DMSO) | protein stability index (treatment: MLN4924 1 uM, 8 h) |
| --- | --- | --- |
| AEVWVSGTIFIRNVLLFKKQNPGK [RETREG3] | 2.68 ± 0.54 | 2.49 ± 0.35 |
| LSDEDDGFVDLLDGENLKNEEETP [CDC25A] | 5.48 ± 0.33 | 5.4 ± 0.31 |
| SCCFDPDSQRVASVSLDRCIKIWD [WDR88] | 2.44 ± 0.14 | 2.57 ± 0.36 |
| FVLQAIGIPGWGFSGWISALVVPK [SCAMP3] | 3.08 ± 0.53 | 2.88 ± 0.37 |
| NGSGDMIFEGNSEKEIPVLNELPV [CPXM2] | 4.79 ± 0.34 | 5.01 ± 0.25 |
| YAYSNGIDYKTTTILLDGRRVRLE [RAB40C] | 2.68 ± 0.3 | 2.56 ± 0.34 |
| HHVPGGGNVKIDSQKLNFREHAKA [MAP2] | 4.3 ± 0.43 | 4.4 ± 0.27 |
| VGQQVHNLLLTYLIVTSLLLLPGL [ARL6IP1] | 3.27 ± 0.26 | 3.46 ± 0.57 |
| AGEDNDDLIDNLKEAQYIRTERVE [PCMTD1] | 5.08 ± 0.18 | 5.15 ± 0.26 |
